Data from the supplement of paper PMC10567573.
± gives the standard deviation.

Assay: protein stability index of a GFP-peptide fusion (GPS, HEK-293T) (PSI 1-6); higher = more stable
[1] = treatment: DMSO, c terminus: a fixed tail appended
[2] = treatment: MLN4924 1 uM, 8 h, c terminus: a fixed tail appended
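Also: 24-mer peptide tiles fused after GFP, lentivirally expressed, FACS-sorted into six equal bins by GFP/DsRed ratio, decoded by Illumina sequencing, PSI is the read-weighted mean bin number.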

Sequence	protein stability index [1]	protein stability index [2]	protein stability index (treatment: DMSO, c terminus: native)	protein stability index (treatment: MLN4924 1 uM, 8 h, c terminus: native)
HLSSPAKNFFKKAAAALFGGKKDK [PLK2]	2.16 ± 0.49	2.53 ± 0.55		
PPPAYEPPAPAPLPPPSAPSLQPS [SCAMP3]	5.04 ± 0.18	4.97 ± 0.11		
TAAPPPPPPSRPSVAVPPPPPNRM [WASL]	4.82 ± 0.3	4.87 ± 0.2		
LTQDWVQENYLEYRQVPGSDPARY [MAGEA10]	4.06 ± 0.22	3.88 ± 0.2		
EPDALDDSLTSLQWLQEFSILNAK [FOXJ1]	3.75 ± 0.21	3.65 ± 0.11		
KAILKNISVLAFSVCFIFTITIGM [SLC29A1]	3.19 ± 0.29	2.96 ± 0.44		
LQNEVPPQPDPVFLEALSSRYLGD [SERTAD3]	4.32 ± 0.15	4.25 ± 0.14		
MDGRMEAATRGGSHLQAAAQTPPR [SCNN1D]	4.92 ± 0.39	4.93 ± 0.061		
EGTLGYAIGGTYLGPAFRGLKGRT [SPSB2]	3.14 ± 0.1	3.06 ± 0.32		
SLRQKQPERLCSGPGIVGNVLVDP [GMPPB]	3.65 ± 0.2	3.46 ± 0.15		
FLVGLLFVQRSGNYFVTMFDDYSA [SLC6A17]	3.05 ± 0.76	3.27 ± 0.38		
KISKQFVAPADVRRLLSYCKGRDH [ZSWIM9]	2.49 ± 0.32	2.81 ± 0.27		
TMAAKKNRQSSDKQNGRVAKVKGH [C18orf25]	4.53 ± 0.25	4.58 ± 0.29		
SHAAPGPSPDSWVPRPGTPQSPPS [FCHO1]	5.12 ± 0.47	5.05 ± 0.62		
PHFLQGGPFPLPYTAPGGYLDVGS [TBX6]	2.93 ± 0.56	2.76 ± 0.33		
GLSVSSRFSSGGACGLGGGYGGGF [KRT16]	2.2 ± 0.39	2.52 ± 0.38		
NKPGCEHECVNMEESYYCRCHRGY [MATN2]	4.3 ± 0.72	4.24 ± 0.22		
FQVVKDAVLDCLLDFLPKDVKKEK [TENT5D]	5.16 ± 0.18	4.95 ± 0.23		
PRPPSNPPARGTLKTSNLPEELRK [TRAF3IP2]	4.71 ± 0.2	4.79 ± 0.3		
VAVDYCASENHGCEHECVNADGSY [MATN2]	5.08 ± 0.13	5.07 ± 0.054		
SSPKFREEAAFPGRRVNAKMPVYS [ELOA2]	3.3 ± 0.17	3.48 ± 0.14		
NENPNNFQILLLSDPSTIEASNFQ [PNLIPRP1]	3.33 ± 0.36	3.44 ± 0.5		
MNIIELEIPDQNIDVEALQVAFGS [GMCL1]	2.86 ± 0.31	2.73 ± 0.072		

Sequence	protein stability index [1]	protein stability index [2]	protein stability index (treatment: DMSO, c terminus: native)	protein stability index (treatment: MLN4924 1 uM, 8 h, c terminus: native)
LALLNLACMMTITFLPYTFSLMVT [TMEM175]	3.27 ± 0.32	3.38 ± 0.27		
YGALSSNLQPPASLQTGNHSNGPT [NOL4L]	4.39 ± 0.22	4.44 ± 0.18		
SSHLQSSKAGPTRIFTSNTHSSVV [KLHL13]	3.52 ± 0.22	3.52 ± 0.2		
SSISSSARRTTRSEPIRRAGKSGT [MAP2]	4.89 ± 0.26	5.09 ± 0.16		
GFHKAGSMLPPVNFSIVPYEKKFD [SPATS1]	3.64 ± 0.087	3.54 ± 0.054		
WRMLRPQLVNSSADNMLEYKSWLK [PPEF2]	2.64 ± 0.49	2.7 ± 0.39		
SERTDTAADGETTATEELEKTQDD [EPB41L3]	5.63 ± 0.2	5.59 ± 0.21		
MAPDPVAAETAAQGPTPRYFTWDE [FADS1]	4.7 ± 0.17	4.83 ± 0.27		
VVCAFFKQGQCTKGDKCKFSHDLT [ZC3H15]	4.26 ± 0.64	4.1 ± 0.47		
HKPLLICSCEWMAAMFGGSFVESA [RHOBTB1]	2.72 ± 0.79	2.46 ± 0.85		
QQRSKDLESRQRSLEQANRSLQLR [TFE3]	4.76 ± 0.062	4.655 ± 0.041		
HQQNKIKDLQKEQKTLQVKCQHYK [CEP70]	4.11 ± 0.28	4.6 ± 0.21		
DNSPTSNSLEGGTDATAFWWGEWT [ADAMTSL2]	3.62 ± 0.35			
MTGAYNNFFRMFDRNTKRDVTLEA [PPP2R2C]	3.03 ± 0.45	3.14 ± 0.33		
KYFGCELGAQTQFDVKNDRYIVNG [EIF5]	3.08 ± 0.35	3.27 ± 0.26		
QDLCCRAIVSCTPVHLIDKLPLPV [RAB40C]	2.4 ± 0.24	2.16 ± 0.18		
SEQLVNFTGKAEMGGPFSYVYFFC [TMEM106C]	2.69 ± 0.48	2.64 ± 0.45		
KVMIFKSSYSLSDMVSNIELPTRI [MIA2]	1.88 ± 0.56	2.17 ± 0.12		
SIVILDNSPGAYRSHPDNAIPIKS [CTDNEP1]	2.82 ± 0.27	2.91 ± 0.57		
SPPVDLFATASAAVPVSTSKPSSD [SNAP91]	5.31 ± 0.12	5.33 ± 0.17		
SLHDGSDGLDGISVGSYLDTLADD [LURAP1L]	5 ± 0.17	4.93 ± 0.25		
PPQPCATACKPVIRVPSVPPVPCV [KRT36]	2.9 ± 0.28	2.91 ± 0.16		
MAVAFLSAQRSKDPNSQVGACIVN [DCTD]	2.01 ± 0.16	2.27 ± 0.25		

Sequence	protein stability index [1]	protein stability index [2]	protein stability index (treatment: DMSO, c terminus: native)	protein stability index (treatment: MLN4924 1 uM, 8 h, c terminus: native)
NELTLNEKNFFPEYNYDWWEKKPF [CHGB]	2.73 ± 0.24	3 ± 0.35		
IEKEEQEKKRKEEEERRRREEEER [ACBD3]	5.48 ± 0.21	5.66 ± 0.097		
TEDELRVRHLEEENRGIVVLGINR [AUH]	4.29 ± 0.15	4.33 ± 0.39		
TASTAPPVPATAPSPAPAVAAAAA [SNAP91]	5.09 ± 0.19	5.08 ± 0.12		
PGGPCDSTLGGDIRESDPEQAPAP [TBX6]	5.49 ± 0.16	5.44 ± 0.29		
HRGPSGHTEASAQRSHMGKLKEPQ	5.1 ± 0.38	4.87 ± 0.5		
RAEKEACQREKELPAAVHPFHFV [ZBED2]			4.87 ± 0.39	4.8 ± 0.34
PRCKTTKYRNPSLKLMVNVCGHTL [MNAT1]	2.39 ± 0.18	2.31 ± 0.23		
PGEPNNAGNNEHCGNIKAPSLQAW [CD207]	4.38 ± 0.12	4.21 ± 0.078		
PSEWRPLSEGCRAELAETIVYARV [CCDC3]	3.14 ± 0.32	2.51 ± 0.23		
MERPQPDSMPQDLSEALKEATKEV [HMOX1]	5.44 ± 0.25	5.43 ± 0.22		
AGEREDLWAGSKGKEFGYFPRDAV [MIA2]	3.47 ± 0.15	3.86 ± 0.51		
TSWSQHCPWEPQKQPPWEFLQVLE [SPAG8]	2.31 ± 0.13	2.55 ± 0.29		
KPLLGSAVLGLLLVLAAVVAWCYY [MYORG]	2.11 ± 0.4	2.25 ± 0.24		
LWHLAITDRSFNIVDIKPANMEDL [PPP2R2C]	2.36 ± 0.23	2.41 ± 0.28		
ACTMDQARGLDDAAARGGQCPGLG [ZBED3]	4.54 ± 0.18	4.51 ± 0.14		
AGPGAPEPLAEGAAAEFSSLLRRI [SLC35F2]	3.9 ± 0.32	3.77 ± 0.46		
PSALFSKIRRGQFCIPEHISPKAR [TRIB1]	2.81 ± 0.37	3.06 ± 0.47		
LKGGLQEVAEQLELERIGPQHQAG [CNOT7]	4.67 ± 0.14	4.94 ± 0.22		
VVWNAQTGEKLLELNGHTQKITAI [WDR41]	2.19 ± 0.2	2.31 ± 0.17		
KKHAAYAWPFYKPVDAEALELHDY [BRD3]	2.97 ± 0.39	2.96 ± 0.38		
PAGEMKPMPLSEGKSILLFGGAAA [BCL2L13]	3.53 ± 0.15	3.75 ± 0.27		
GGYLQRTTYDRRSSQERKFMEERE [RSPH3]	4.82 ± 0.21	4.76 ± 0.17		

Sequence	protein stability index [1]	protein stability index [2]	protein stability index (treatment: DMSO, c terminus: native)	protein stability index (treatment: MLN4924 1 uM, 8 h, c terminus: native)
GAPEDDEEDDGRGRGLLRWDSFSA [DENND6A]	4.92 ± 0.078	4.98 ± 0.19		
LIVGLQGMDLNLEAEALAGTGLVL [HDAC6]	2.91 ± 0.48	2.6 ± 0.62		
MMVRQMKEDAKGKSEEELAECFRI [TNNC2]		4.3 ± 0.52		
QLAEENERLKQEIERLTREVEATR [DDIT3]	5.4 ± 0.26	5.51 ± 0.32		
CRLTHIPAYKVSGDKNEEQVLNAI [ZER1]	3.5 ± 0.42	3.42 ± 0.3		
RFEQEAVAVDSNLRVRELQRKVDG [CCDC89]	4.98 ± 0.28	4.9 ± 0.29		
GYGRAPGGLSLHDYKLLKPSLAVN [JUNB]	2.92 ± 0.035	2.88 ± 0.73		
SDLLDEKEIAKNLIQPINHTTLQC [FEM1C]	3.83 ± 0.25	4.03 ± 0.39		
ANNRILAERIAKEIQVIPLQRDDE [IMPA1]	4.17 ± 0.38	4.04 ± 0.068		
YSSGPQSWYPKANNQDFIPFTKKR [ZC2HC1C]	3.07 ± 0.54	3.68 ± 0.22		
RTIYHMFIAGLCVFIISTLAIDFI [SOAT2]	3.14 ± 0.56	2.96 ± 0.67		
LAEAKYYLVQGLVEECQAALQNKD [KCTD10]	3.24 ± 0.17	3.38 ± 0.29		
EQLERIERKNAEMYKLSSEQFHEA [CHCHD6]	4.52 ± 0.46	4.78 ± 0.12		
IAEVCCTSIVYATEKKQTKVEFPE [KCTD10]	3.42 ± 0.18	3.9 ± 0.39		
QLPPASRCVLVFEQVRFLMKSYSF [SOAT2]	2.71 ± 0.67	1.95 ± 0.1		
PGFSSLSLSDQMSVLQSVWMEVLV [ESRRA]	2.38 ± 0.33	2.08 ± 0.27		
HSIINALKAKLQMTEAALALSEQK [LRRC45]	2.63 ± 0.087	2.74 ± 0.27		
FKNSLLQKELKKAQMAKAAAEERA [WEE1]	4.37 ± 0.15	4.34 ± 0.087		
PVGQEIVIPFKVDTILKYLKDHFS [IQUB]	2.33 ± 0.73	1.95 ± 0.39		
MDTSHQPLLPAPPKTPMDGADCGI [LYSMD4]	5.04 ± 0.2	5.09 ± 0.33		
